Measurements from patent US20050119186A1, “Potent peptide inhibitors and methods of use” (priority 2003, published 2005).
Where two headings read alike, the source gives them in different places. Positions of bridges follow the written chain, without caps; N, C: chain ends. Residues, ends and D or L forms follow the SMILES beside them. No end group written: not given here.

Tests used:
[1] = target: T1, ICAM-1/LFA-1 (Homo sapiens, UniProt P05362); assay: cellular aggregation blocking assay (LFA-1/ICAM-1 dependent cell aggregation); format: cell-based
T1 construct: endogenous in cells
T1 sequence (P05362 28-532): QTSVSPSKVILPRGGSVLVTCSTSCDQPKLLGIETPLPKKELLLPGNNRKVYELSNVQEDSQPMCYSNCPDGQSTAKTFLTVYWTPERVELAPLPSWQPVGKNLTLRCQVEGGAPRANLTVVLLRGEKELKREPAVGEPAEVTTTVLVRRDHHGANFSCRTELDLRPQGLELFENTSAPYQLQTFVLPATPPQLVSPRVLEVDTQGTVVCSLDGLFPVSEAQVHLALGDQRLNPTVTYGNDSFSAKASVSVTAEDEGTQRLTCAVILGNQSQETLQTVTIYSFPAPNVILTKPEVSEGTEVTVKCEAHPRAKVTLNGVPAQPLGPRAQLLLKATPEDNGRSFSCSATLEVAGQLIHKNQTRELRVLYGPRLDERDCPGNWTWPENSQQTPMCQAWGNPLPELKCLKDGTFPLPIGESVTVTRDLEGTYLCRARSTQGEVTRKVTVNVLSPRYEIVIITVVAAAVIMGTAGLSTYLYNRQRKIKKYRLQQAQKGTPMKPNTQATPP
Excerpt: The inhibitory compound tested was a cyclic peptide containing nine amino acids that bind to ICAM-1, thereby inhibiting LFA-1/ICAM-1 binding. Using alanine replacement and homologous amino acid substitutions, we identified residues strategic to the antagonist activity were identified. A small set of such derived peptides was used as a training set for the inverse-QSAR. The activity or potency of the peptides is associated with an IC50 value, which measures the concentration that leads to half-maximal inhibition of receptor to ligand. Table 1, below, lists the amino acid sequence of sixteen such derived peptides with their IC50 values (given in μM), determined using a cellular aggregation blocking assay (J. Shannon, D. C. Brown, M. Silva, R. S. Larson, A cyclic peptide inhibits LFA-1/ICAM-1 mediated cell aggregation, J. Pept. Res. (2001) 1-14, L. Sillerud, E. Burks, D. C. Brown, R. S. Larson, NMR-derived solution model of potent ICAM-1 inhibitory peptide, J. Pept. 62 (2003) 97-116).
In brief, the aggregation of a cell line dependent on LFA-1 binding to ICAM-1 was used to measure the inhibitory capacity of each peptide. Inhibitory peptides and cells were seeded in flat-bottomed microtiter plates and allowed to aggregate. The number of aggregates and total number of free (single) cells were counted using inverted phase microscopy. The percent aggregation, P, was determined as P=100(1−F/I) (1) where F is the final number of free cells and I is the initial number of free cells. This percent aggregation was then used to calculate the percent inhibition, Pi as follows Pi=100(1−Pip/Pc) (2) where Pip is the percent aggregation with inhibitory peptide and Pc is the percent aggregation in the control experiment. The IC50 values were calculated from a line fit to the percent inhibition data as a function of inhibitory peptide concentration over the range from 10 μM to 1 mM. Each condition was performed in duplicate while each experiment was performed a minimum of three times.

[2] = target: T2, intercellular adhesion molecule-1 (ICAM-1) (human, UniProt P05362 28-532); assay: cell-based or functional assay
T2 sequence (P05362 28-532): as above

[3] = target: T2, intercellular adhesion molecule-1 …; assay: cell-based or functional assay; remark: listed apart in the source
[4] = Table 1, class by experimental IC50, read-out: Inhibitor strength

Row | Molecule | Experimental IC50 (µM), cellular aggregation blocking assay [2] [µM] | other results
1 | CC[C@H](C)[C@@H]1NC(=O)[C@H](CC(C)C)NC(=O)[C@@H](N)CSSC[C@@H](C(=O)O)NC(=O)[C@H](C)NC(=O)[C@H](CO)NC(=O)[C@H](CCCNC(=N)N)NC(=O)[C@H](CCSC)NC(=O)[C@H](CCCNC(=N)N)NC1=O [Peptide 4] (H-CLIRMRSAC-OH; disulfide 1-9) |  | IC50 [1, 4]: 500 to 1000 µM; IC50 ([1]; Table 1, peptide 10 μM to 1 mM, inhibition of cell aggregation, read-out: Experimental IC50): 720 µM
2 | CC[C@H](C)[C@@H]1NC(=O)[C@@H](N)CSSC[C@@H](C(=O)O)NC(=O)[C@H](C)NC(=O)[C@H](CO)NC(=O)[C@H](CCCCN)NC(=O)[C@H](CCSC)NC(=O)[C@H](CCCCN)NC(=O)[C@H](CC(C)C)NC1=O [Peptide 16] (H-CILKMKSAC-OH; disulfide 1-9) |  | IC50 [1, 4]: ≤ 500 µM; IC50 ([1]; strongest inhibitor in the training set, read-out: IC50 value): 40 µM
3 | CLLRMRSAC (disulfide 1-9) [Table 1 peptide 1, CLLRMRSAC (SEQ ID NO:21)] | 480 | 
4 | CLLRMRSIC (disulfide 1-9) [Table 1 peptide 10, CLLRMRSIC (SEQ ID NO:30)] | 580 | 
5 | CALRMRSIC (disulfide 1-9) [Table 1 peptide 11, CALRMRSIC (SEQ ID NO:31)] | > 1000 | 
6 | CLARMRSIC (disulfide 1-9) [Table 1 peptide 12, CLARMRSIC (SEQ ID NO:32)] | > 1000 | 
7 | CLLRMASIC (disulfide 1-9) [Table 1 peptide 14, CLLRMASIC (SEQ ID NO:34)] | > 1000 | 
8 | CLLRMRAIC (disulfide 1-9) [Table 1 peptide 15, CLLRMRAIC (SEQ ID NO:35)] | 710 | 
9 | CILKMKSAC (disulfide 1-9) [Table 1 peptide 16, CILKMKSAC (SEQ ID NO:36)] | 40 | 
10 | CASKMRSAC (disulfide 1-9) [Table 7 peptide 2, CASKMRSAC (SEQ ID NO:2)] |  | Actual IC50 value (µm), cellular assays [3]: 23 µM
11 | CILKMRSVC (disulfide 1-9) [Table 7 peptide 10, CILKMRSVC (SEQ ID NO:10)] |  | Actual IC50 value (µm), cellular assays [3]: 28 µM
12 | CVLRMRSAC (disulfide 1-9) [Table 1 peptide 3, CVLRMRSAC (SEQ ID NO:23)] | > 1000 | 
13 | CLIRMRSAC (disulfide 1-9) [Table 1 peptide 4, CLIRMRSAC (SEQ ID NO:24)] | 720 | 
14 | CLVRMRSAC (disulfide 1-9) [Table 1 peptide 5, CLVRMRSAC (SEQ ID NO:25)] | > 1000 | 
15 | CLLKMRSAC (disulfide 1-9) [Table 1 peptide 6, CLLKMRSAC (SEQ ID NO:26)] | 105 | 
16 | CLLRMKSAC (disulfide 1-9) [Table 1 peptide 7, CLLRMKSAC (SEQ ID NO:27)] | 90 | 
17 | CLLRMRSLC (disulfide 1-9) [Table 1 peptide 8, CLLRMRSLC (SEQ ID NO:28)] | > 1000 | 
18 | CLLRMRSVC (disulfide 1-9) [Table 1 peptide 9, CLLRMRSVC (SEQ ID NO:29)] | 700 | 
